Assay results taken from patent US20220090209.

What was measured:
[1] = molecular target: HIF1β (ARNT), endogenous (Mus musculus) (UniProt P53762); conditions: 5mC at CpG (M.SssI); ChIP-qPCR in isogenic mouse ES cells
HIF2α-HIF1β heterodimer = HIF2α-HIF1β heterodimer (UniProt P97481+P53762); assay: MST; conditions: 5mC at CpG of RCGTG; 20 mM phosphate, 75 mM NaCl, 5 mM DTT, 0.05% Tween-20, pH 7.4, 25 C; scale: fold lower affinity
HIF1α-HIF1β heterodimer = HIF1α-HIF1β heterodimer (UniProt Q61221+P53762); assay: MST; conditions: 5mC at CpG of RCGTG; 20 mM phosphate, 75 mM NaCl, 5 mM DTT, 0.05% Tween-20, pH 7.4, 25 C; scale: fold lower affinity

Row | Substance | binding signal (fold reduction vs unmethylated) [1] | binding signal (HIF2α-HIF1β heterodimer) | binding signal (HIF1α-HIF1β heterodimer)
1 | in vitro methylated human HIF binding region chr16:30,065,212-30,065,711 | 12.4 |  | 
2 | methylated RCGTG ds oligonucleotide |  | 15 | 15
